Laboratory results reported in paper PMC12285254.

Test system: T1, TetR1 (C_22735) (Pseudomonas syringae pv. actinidiae biovar 3 strain S26 (M228)), ORF:bd32bde6
T1 sequence: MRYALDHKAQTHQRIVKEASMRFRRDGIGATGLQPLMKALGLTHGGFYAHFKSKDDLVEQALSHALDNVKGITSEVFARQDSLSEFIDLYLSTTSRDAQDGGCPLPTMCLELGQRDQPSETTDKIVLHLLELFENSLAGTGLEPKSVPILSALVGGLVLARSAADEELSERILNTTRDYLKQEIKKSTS
Test: EMSA
Details: LightShift EMSA Optimization and Control kit (Thermo) per manufacturer, 100 ng probe per reaction, varied protein; 2 uL of 1 mg/mL Myc.A7 for supershift …

With “TTGAGTCGAGGATCACAATCTTCTGAAACATGGGCTTACCCTGATTTAATGGTGTGCAAGCCCTATAGCGATAACCATGCCAGCTTAAAAATATAAATAAGCCACTGATTTATAACGATATTTTAAAATATGAAATCCTTTGCAATACAAAACTTTGCGCAAACCGTTTTTTGCCACAACAGCTTTTGGCACAAAAACATCGGCCAGCTTCGCAAGGGAACTGATCCGGGACCGTGACCCACTCAGCGAACATAACCCGGCT (double strand) [hrpL upstream probe (262 bp)]” the binding was “binds”.
